Measured values as given in paper PMC11379823.

T1: human orexin receptor 2 (human) (UniProt O43614)
T1 sequence: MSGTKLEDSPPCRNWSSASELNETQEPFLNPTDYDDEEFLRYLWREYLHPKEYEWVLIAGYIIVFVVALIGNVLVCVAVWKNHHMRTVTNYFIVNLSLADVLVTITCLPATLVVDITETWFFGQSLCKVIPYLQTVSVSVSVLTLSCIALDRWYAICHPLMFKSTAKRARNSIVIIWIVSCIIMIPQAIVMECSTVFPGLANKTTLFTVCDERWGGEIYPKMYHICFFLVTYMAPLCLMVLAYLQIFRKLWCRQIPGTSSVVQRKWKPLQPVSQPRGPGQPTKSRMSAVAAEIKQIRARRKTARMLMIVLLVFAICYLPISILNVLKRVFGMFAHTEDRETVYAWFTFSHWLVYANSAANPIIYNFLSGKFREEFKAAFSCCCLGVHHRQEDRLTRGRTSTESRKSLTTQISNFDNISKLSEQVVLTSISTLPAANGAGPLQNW


Molecular target: T1, human orexin receptor 2 (human)

intracellular accumulation of IP1 in hOX2R/CHO-EA cells, EC50 | intracellular phosphorylation of CREB (Ser133) in hOX2R/CHO-EA cells, EC50 | β-arrestin recruitment in hOX2R/CHO-EA cells (PathHunter), EC50 | Molecule
3.2 nM | 4.7 nM | 4 nM | orexin-B (from UniProt O43612 70-97) (peptide)
0.84 nM | 1.8 nM | 3 nM | QPLPDCCRQKTCSCRLYELLHGAGNHAAGILTL [orexin-A]
